{"source": "paper PMC10114367", "about": "(Fluids and Barriers of the CNS, 2023)", "key": {"[1]": {"test_system": "blood-brain barrier (BBB)", "assay": "Whole brain vascular space / BBB permeability to ^99mTc-albumin following CNS treatment", "assay_type": "in vivo, CD-1 mice", "protocol": "For all radioactive studies, the right jugular vein and left carotid artery were exposed. […] Mice were injected IV with the radioactive tracer 10 min later. […] The whole brain, olfactory bulb, and in some cases the hypothalamus were removed and weighed. […] Each mouse yielded a single serum sample and time-matched brain sample. Exposure time was calculated from the formula:1 [drawing 1] , where Am is the level of radioactivity (CPM) per gram of brain tissue at time (t), Cpt is the level of radioactivity (CPM) per ml arterial serum at time t, Ki (μl/g-min) is the steady-state rate of unidirectional solute influx from blood to brain. Vi (μl/g) is the level of solute in rapid, reversible equilibrium between plasma and brain. Subtracting ratios for ^99mTc-albumin from the corresponding ^125I-insulin brain/serum (B/S) ratio yielded a delta B/S ratio, which corrects the B/S ratio for ^125I-insulin for vascular space. The linear portion of the relation between the delta B/S ratio versus exposure time is represented in the figures and was used to calculate the Ki (μl/g-min) with its standard error term, and the y-intercept determined representing the Vi(μl/g)."}, "[2]": {"assay": "Distribution of ^125I-insulin and ^125I-S961 following ICV delivery", "assay_type": "in vivo, CD-1 mice", "protocol": "The scalp was reflected in anesthetized mice and a hole was drilled 1 mm lateral and 0.2 mm posterior to the Bregma. […] Brains were removed between 2 and 60 min later and dissected into regions. […] Weighed brain regions and serum were counted in a gamma counter (Wizard2, Perkin Elmer, Waltham, MA, USA). […] The %Inj was divided by the weight of the region (g/region) or the volume serum measured (ul/serum) to calculate the %Inj/g and %Inj/ml. Pilot studies were performed to identify ventricular injection using this method."}, "[3]": {"details": "cited from earlier work"}, "[4]": {"test_system": "insulin transport across the blood-brain barrier (BBB)", "assay": "^125I-insulin blood-to-brain BBB pharmacokinetics by multiple-time regression analysis (MTRA) after CNS treatment", "assay_type": "in vivo, CD-1 mice", "details": "for Ki of ^125I-insulin (unidirectional influx blood to brain) / Vi of ^125I-insulin (reversible vascular binding): male mice; for Ki of ^125I-insulin (unidirectional influx blood to brain): MTRA slope ± SE; for Vi of ^125I-insulin (reversible vascular binding): MTRA y-intercept", "protocol": "For all radioactive studies, the right jugular vein and left carotid artery were exposed. […] The whole brain, olfactory bulb, and in some cases the hypothalamus were removed and weighed. […] Each mouse yielded a single serum sample and time-matched brain sample. Exposure time was calculated from the formula:1 [drawing 1] , where Cp is the level of radioactivity (CPM) in serum at time (t). […] Vi (μl/g) is the level of solute in rapid, reversible equilibrium between plasma and brain. […] The linear portion of the relation between the delta B/S ratio versus exposure time is represented in the figures and was used to calculate the Ki (μl/g-min) with its standard error term, and the y-intercept determined representing the Vi(μl/g). Regression analyses and other statistical analyses were performed with Prism 9.0 (GraphPad Softward Inc., San Diego, CA, USA). For all MTRA pharmacokinetic studies, the slope of the linear regression lines (Ki), reported with their correlation coefficients (r), and y-intercepts (Vi) were compared statistically using Prism equivalent to an analysis of covariance (ANCOVA). For these studies, the individual data points are presented in the representative Figures. For the regional studies, the regional B/S levels for each sex were reported with their standard error terms and analyzed by a two-way analysis of variance (ANOVA) followed by Tukey's post hoc test when appropriate."}, "[5]": {"test_system": "regional brain vascular space", "assay": "Regional ^99mTc-albumin brain/serum ratios (vascular space) following CNS treatment", "assay_type": "in vivo, CD-1 mice", "details": "olfactory bulb; male; 30 min after 1 µg IN insulin", "protocol": "For the regional studies, brain and serum were collected at a single time point post central nervous system (CNS) manipulation. For IN studies following ICV delivery, S961 (1 µg in PB) or vehicle was given ICV, and IN ^125I-insulin was immediately administered. 30 min later, brain and serum were collected. […] For IV studies following ICV delivery, S961 (1 µg in PB) or vehicle was given ICV and 10 min later, IV ^125I-insulin and ^99mTc-albumin was injected. For the IV studies, brain and serum were collected 5 min later. Olfactory bulb (OB) and the whole brain dissected into 10 regions were weighed: striatum (St), frontal cortex (FC), hypothalamus (Hy), hippocampus (HC), thalamus (Th), parietal cortex (PC), occipital cortex (OC), cerebellum (CB), midbrain (MB), and pons-medulla (PM). Whole brain (WB) is the summed value from individual regions. The levels of radioactivity in serum (50 µl) and brain samples were counted in a gamma counter (Wizard2, Perkin Elmer, Waltham, MA, USA). %Inj/g for IN distribution and Delta B/S ratios following IV administration were calculated as described above. ^99mTc-albumin B/S ratios are also presented to identify changes in regional vascular space following CNS manipulation."}, "[6]": {"assay": "Immunoactive serum insulin measurement (MSD mouse insulin kit) after ICV treatment", "assay_type": "in vivo, CD-1 mice", "details": "male, kit cross reacts with human insulin", "protocol": "Whole blood was centrifuged at 3,200xg for 10 min. Serum was collected, aliquoted, and frozen at -80 °C until measurement. […] This kit cross reacts with human insulin."}, "[7]": {"target": "insulin transport across the blood-brain barrier (BBB)", "details": "per mouse; cited from earlier work", "protocol": "The average blood volume of a mouse is about 77–80 ml/kg. Given that our male CD-1 mice are approximately 30 g at the time of study, these mice have around 2.4 ml of blood. […] Therefore, while th ..."}, "[8]": {"details": "olfactory bulb, 1 µg ICV insulin 10 min before IV ^125I-insulin"}, "[9]": {"details": "olfactory bulb, 1 µg IN insulin 30 min before IV ^125I-insulin"}, "[10]": {"details": "whole brain, 1 µg ICV insulin 10 min before IV ^125I-insulin"}}, "note": "“Also recorded” adds a separate entry of the source."}
{"substance": "^99mTc-albumin: bovine serum albumin labeled with Technetium-99m; marker for vascular space", "values": [{"measurement": "^99mTc-albumin whole brain B/S ratio", "setting": "[1]; mouse, in vivo, iv", "value": "8 to 12", "unit": "µL/g"}]}
{"substance": "^125I-insulin: human insulin radioactively labeled with ^125I; tracer for BBB transport", "values": [{"measurement": "amount of ^125I-insulin entering the blood following ICV delivery", "setting": "[2]; mouse, in vivo", "value": "< 3", "unit": "%Inj/ml"}, {"measurement": "time by which tracer is distributed throughout the brain after ICV delivery", "setting": "[2]; mouse, in vivo", "value": "≤ 5", "unit": "min"}, {"measurement": "time to appearance in serum after ICV injection", "setting": "[2]; mouse, in vivo", "value": "≤ 5", "unit": "min"}, {"measurement": "^125I-insulin present in whole brain after IN delivery", "setting": "[3]; mouse, in vivo", "value": "approximately 0.13 %Inj/g"}, {"measurement": "time of peak brain level after IN administration", "setting": "[3]; mouse, in vivo", "value": "about 30 min"}]}
{"substance": "human insulin", "values": [{"measurement": "expected amount per gram of brain tissue after 1 µg ICV administration", "setting": "[2]; calculated from %Inj/g at 10 min and 1 µg ICV dose", "value": "approximately 605 ng per gram of brain tissue"}, {"measurement": "level in whole brain after ICV delivery", "setting": "[2]; radiolabelled tracer ICV, whole brain at 10 min", "value": "approximately 60.5 %Inj/g"}, {"measurement": "Ki of ^125I-insulin (unidirectional influx blood to brain)", "setting": "[4]; hypothalamus, 1 µg IN insulin 30 min before IV ^125I-insulin, regression ns", "value": "0.57 ± 0.88", "unit": "µL/g/min"}, {"measurement": "slowing of ^125I-insulin blood-to-brain transport rate vs vehicle", "setting": "[4]; hypothalamus, male, 1 µg IN insulin, 30 min", "value": "about 85%"}, {"measurement": "Ki of ^125I-insulin (unidirectional influx blood to brain)", "setting": "[4]; [8]", "value": "~ 0.3 µl/g-min"}, {"measurement": "Ki of ^125I-insulin (unidirectional influx blood to brain)", "setting": "[4]; olfactory bulb, 1 µg ICV insulin 10 min before IV ^125I-insulin, listed as Insulin", "value": "0.35 ± 0.16", "unit": "µL/g/min"}, {"measurement": "Vi of ^125I-insulin (reversible vascular binding)", "setting": "[4]; [8]", "value": "14.6 ± 2.2", "unit": "µL/g"}, {"measurement": "Ki of ^125I-insulin (unidirectional influx blood to brain)", "setting": "[4]; [9]", "value": "2.74 ± 0.52", "unit": "µL/g/min"}, {"measurement": "Vi of ^125I-insulin (reversible vascular binding)", "setting": "[4]; [9]", "value": "9.7 ± 3.9", "unit": "µL/g"}, {"measurement": "decrease of ^125I-insulin blood-to-brain transport rate vs vehicle", "setting": "[4]; olfactory bulb, male, 1 µg ICV insulin, 10 min", "value": "about 82%"}, {"measurement": "Ki of ^125I-insulin (unidirectional influx blood to brain)", "setting": "[4]; [10]", "value": "~ 0.3 µl/g-min"}, {"measurement": "Ki of ^125I-insulin (unidirectional influx blood to brain)", "setting": "[4]; whole brain, 1 µg ICV insulin 10 min before IV ^125I-insulin, listed as Insulin", "value": "0.30 ± 0.11", "unit": "µL/g/min"}, {"measurement": "Vi of ^125I-insulin (reversible vascular binding)", "setting": "[4]; [10]", "value": "7.9 ± 1.5", "unit": "µL/g"}, {"measurement": "effect on whole brain vascular space or BBB leakage measured with ^99mTc-albumin", "setting": "[1]; 1 µg ICV or IN insulin (males), 1 µg ICV S961 (males, females)", "value": "no effect"}, {"measurement": "increase in ^99mTc-albumin vs vehicle", "setting": "[5]", "value": 43, "unit": "%"}, {"measurement": "change in serum insulin level vs vehicle", "setting": "[6]; 30 min after 1 µg ICV human insulin", "value": "nearly doubled; also recorded: two-fold increase"}, {"measurement": "rise in serum insulin level", "setting": "[6]; 30 min after 1 µg human insulin ICV", "value": 5, "unit": "ng/mL"}, {"measurement": "IV bolus of unlabeled insulin necessary to reduce the ^125I-insulin BBB Ki by 50%", "setting": "[7]", "value": 121, "unit": "ng"}, {"measurement": "insulin present in hypothalamus after IN delivery", "setting": "[3]; hypothalamus, 30 min after IN insulin delivery, male CD-1 mice", "value": 0.23, "unit": "%Inj/g"}]}
